This assay deals with T1, His-IRSp53 (UniProt Q9UQB8 1-552).
T1 sequence (looked up): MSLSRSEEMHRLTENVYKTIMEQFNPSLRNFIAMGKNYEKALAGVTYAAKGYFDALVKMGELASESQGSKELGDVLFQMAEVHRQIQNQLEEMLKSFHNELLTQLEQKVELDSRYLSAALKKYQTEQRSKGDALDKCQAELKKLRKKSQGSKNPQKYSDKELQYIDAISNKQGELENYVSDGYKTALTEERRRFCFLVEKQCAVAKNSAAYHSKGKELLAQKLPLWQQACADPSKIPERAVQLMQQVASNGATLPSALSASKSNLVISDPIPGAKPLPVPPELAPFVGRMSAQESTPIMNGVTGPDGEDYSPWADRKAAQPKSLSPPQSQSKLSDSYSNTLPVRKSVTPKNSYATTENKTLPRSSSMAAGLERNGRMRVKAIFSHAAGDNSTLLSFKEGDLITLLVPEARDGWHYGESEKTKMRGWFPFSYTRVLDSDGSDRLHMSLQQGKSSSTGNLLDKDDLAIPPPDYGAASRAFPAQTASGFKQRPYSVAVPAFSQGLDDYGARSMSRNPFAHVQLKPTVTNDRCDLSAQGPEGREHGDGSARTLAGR
Nature of the assay: far-Western, overlay or dot blot; 10 pmoles of His-IRSp53, GST-IRSp53-SH3 or BSA spotted onto nitrocellulose, incubated with increasing concentrations of purified VASP; anti-VASP immunoblot; fraction bound against total VASP; apparent dissociation constant. The settings on record: both partners purified. (In general: A western blot detects proteins with antibodies after separation by electrophoresis.)

Experimental findings from article PMC3140970, “The Eps8/IRSp53/VASP Network Differentially Controls Actin Capping and Bundling in Filopodia Formation” (PLoS Computational Biology, 2011) are described below.

B1: VASP, recombinant, cleaved from GST (natural protein, human, UniProt P50552 1-380, looked up)
chain: MSETVICSSRATVMLYDDGNKRWLPAGTGPQAFSRVQIYHNPTANSFRVVGRKMQPDQQVVINCAIVRGVKYNQATPNFHQWRDARQVWGLNFGSKEDAAQFAAGMASALEALEGGGPPPPPALPTWSVPNGPSPEEVEQQKRQQPGPSEHIERRVSNAGGPPAPPAGGPPPPPGPPPPPGPPPPPGLPPSGVPAAAHGAGGGPPPAPPLPAAQGPGGGGAGAPGLAAAIAGAKLRKVSKQEEASGGPTAPKAESGRSGGGGLMEEMNAMLARRRKATQVGEKTPKDESANQEEPEARVPAQSESVRRPWEKNSTTLPRMKSSSSVTTSETQPCTPSSSDYSDLQRVKQELLEEVKKELQKVKEEIIEAFVQELRKRGSP
notes: also called purified VASP; recombinant human VASP
With B1, the Kd is 12.5 nM.
